From patent US20070212365A1

Key:
[1] = molecular target: synthetic peptide … (antigen from mpf00920 polypeptide); assay: ELISA on the antigen; pre-immune serum at 16000-fold dilution
[2] = molecular target: synthetic peptide … (antigen from mpf00920 polypeptide); assay: ELISA on the antigen; pre-immune serum at 8000-fold dilution
[3] = molecular target: synthetic peptide … (antigen from mpf00920 polypeptide); assay: ELISA on the antigen; pre-immune serum at 4000-fold dilution
[4] = molecular target: synthetic peptide … (antigen from mpf00920 polypeptide); assay: ELISA on the antigen; pre-immune serum at 1000-fold dilution
[5] = molecular target: synthetic peptide … (antigen from mpf00920 polypeptide); assay: ELISA on the antigen; pre-immune serum at 2000-fold dilution

control serum (rabbit serum without immunization)
absorbance (490 nm) (absorbance (490 nm)) [1]: 0.076 | absorbance (490 nm) (absorbance (490 nm)) [2]: 0.084 | absorbance (490 nm) (absorbance (490 nm)) [3]: 0.089 | absorbance (490 nm) (absorbance (490 nm)) [4]: 0.171 | absorbance (490 nm) (absorbance (490 nm)) [5]: 0.101
